Source: patent publication US20190309288A1, “TARGETED MUTAGENESIS” (THE BOARD OF TRUSTEES OF THE LELAND STANFORD JUNIOR …, priority 2016, published 2019)
Numbering of substitutions follows the chain as printed. In names and notes the source's numbering stands.

B1: R78N: PSMB5 variant, chr14: 23033640 C > A/T (protein, UniProt P28074 60-263, looked up, variant R78N)
Proteasome subunit beta type-5: TTTLAFKFRHGVIVAADSNATAGAYIASQTVKKVIEINPYLLGTMAGGAADCSFWERLLARQCRIYELRNKERISVAAASKLLANMVYQYKGMGLSMGTMICGWDKRGPGLYYVDSEGNRISGATFSVGSGSVYAYGVMDRGYSYDLEVEQAYDLARRAIYQATYRDAYSGGAVNLYHVREDGWIRVSSDNVADLHEKYSGSTP
B2: L11L: PSMB5 synonymous mutation in exon 1, chr14: 23034851 G > A (protein, UniProt P28074 60-263, looked up)
Proteasome subunit beta type-5: B1 Proteasome subunit beta type-5 with N19R
modifications: synonymous mutation L11L
notes: PSMB5 synonymous mutation in exon 1, chr14: 23034851 G > A
B3: A108V: PSMB5 variant, chr14: 23033550 G > A; residue known to be involved in binding bortezomib (protein, UniProt P28074 60-263, looked up, variant A108V)
Proteasome subunit beta type-5: B1 Proteasome subunit beta type-5 with N19R, A49V
B4: G82D: PSMB5 variant, chr14: 23033628 C > T (protein, UniProt P28074 60-263, looked up, variant G82D)
Proteasome subunit beta type-5: B1 Proteasome subunit beta type-5 with N19R, G23D
B5: G242D: PSMB5 variant in exon 4, chr14: 23026156 C > T (protein, UniProt P28074 60-263, looked up, variant G242D)
Proteasome subunit beta type-5: B1 Proteasome subunit beta type-5 with N19R, G183D

Legend:
GFP and mCherry = experiment: Simultaneous mutation of two loci, flow cytometry; type: cell-based; conditions: cells expressing dCas9, MS2-AID*Δ
Procedure: Scatter plots were generated in FlowJo.
Independent mutagenesis at multiple locations is typically not possible with traditional directed evolution experiments. However, the CRISPR/Cas9 system can target multiple loci using different sgRNAs (26, 27). Accordingly, experiments were conducted using two guides, one targeting GFP (sgGFP.10) and the other targeting mCherry (sgmCherry.1), both individually and in combination.

GFP = conditions: cells expressing dCas9, MS2-AID*Δ, mCherry, sgRNA individually
Procedure: (§1) Lentiviral production as well as infection and culturing of K562 cells (ATCC) were performed as described (45). Parental K562 cell lines were generated by infecting dCas9-Blast (pGH125) followed by blasticidin selection (10 μg/mL, Gibco) for 7 days. Cells were subsequently infected with both GFP (pGH045) and mCherry (pGH044) expression vectors or with a wtGFP (pGH220) expression vector and sorted via FACS for fluorescence. These cell lines were used as the parental samples in the sequencing assays. For experiments using an integrated construct, cells were infected with MS2-AID (pGH153, 156, 183, and 335) expressing vectors followed by selection with hygromycin B (200 μg/mL, Life Technologies) for 7 days. All cell lines were maintained in a humidified incubator (37° C., 5% CO2), and checked regularly for mycoplasma contamination.
(§2) Nucleofection of K562 cells was performed as described (46). 1 million K562 cells were harvested for each electroporation. Cells were centrifuged at 300×g for 5 minutes and resuspended in 100 μL of nucleofection solution and mixed with plasmid DNA (5 μg MS2-AID expressing plasmid and 5 μg sgRNA expression vector) and loaded into a 2 mm cuvette (VWR). Electroporations were performed using the T-016 program on the Lonza Nucleofector 2b. After electroporation, cells were rescued in warm, supplemented RPMI media.

mCherry = mCherry fluorescence by flow cytometry as proxy for off-target mutation; type: cell-based; conditions: cells expressing dCas9, MS2-AID*Δ, GFP, sgRNA individually
Procedure: as §1, §2

PSMB5 = experiment: Installation and validation of bortezomib resistant PSMB5 mutations, cell viability; type: cell-based; conditions: mutation knocked into K562 cells at native PSMB5 locus; 20 nM bortezomib, 14 days; compared to controls
Procedure: sgRNAs were designed to target near the location of the installed SNP and 101-nt donor oligos were designed to be centered around the installed mutation. Oligonucleotides with proper overhangs were ordered from IDT and annealed before ligation into BbsI digested pGH020, a hu6 driven sgRNA expression vector. All plasmids were verified by Sanger sequencing.
K562 cells expressing Cas9 were electroporated with 5 μg of sgRNA expressing vector and 100 picomoles of donor oligo. Cells were grown for 6 days before 300,000 cells were placed under selection with 20 nM bortezomib for 14 days. The viability of the cells was measured by flow cytometry using a live cell gate (FSC/SSC). After selection, 750,000 cells were harvested and genomic DNA was extracted using the QiaAmp DNA Mini Kit (Qiagen). The PSMB5 exonic locus containing the mutation was PCR amplified, gel purified, and ligated into the pCR-Blunt vector using the Zero-Blunt cloning kit (Life Technologies). 8-15 colonies were Sanger sequenced for each sample.
Eight of these mutations were functionally validated by knocking each one into the genome separately at the native PSMB5 locus using active Cas9 cutting followed by HDR mediated by a DNA donor oligo (26, 27). To control for the effect of Cas9 cutting and HDR, a synonymous mutation not identified in our screen was knocked into each exon. Cas9 expressing K562 cells were electroporated with donor oligo and sgRNA and incubated for six days followed by subsequent selection with bortezomib. After 14 days, the viability of the cells was measured (FIG. 12). […] For the most resistant mutations, the PSMB5 locus was sequenced following bortezomib selection and the presence of the expected mutation was verified in the majority of non-frameshifted sequences (FIG. 13). Together, these experiments indicate that the technology provided herein selectively mutagenized an endogenously expressed protein target, identifying known and novel mutants that confer drug resistance.

| Molecule | protection against bortezomib-induced cell death (viability) (PSMB5) | other results |
| --- | --- | --- |
| sgGFP.10: sgRNA targeting GFP, sequence CGTCGCCGTCCAGCTCGACC (SEQ ID NO: 38) (chemistry not given here) |  | cells with mutations at both loci (neither GFP nor mCherry) (GFP and mCherry): 0.26%; GFP low population (GFP): ~15% |
| sgmCherry.1: sgRNA targeting mCherry, sequence GCGGTCTGGGTGCCCTCGTA (SEQ ID NO: 81) (listed as DNA, chemistry not fully specified) |  | cells with mutations at both loci (neither GFP nor mCherry) (GFP and mCherry): 0.30%; mCherry low population (mCherry): ~15% |
| B1 | strongly protective |  |
| B2 | more modest protection |  |
| B3 | strongly protective |  |
| B4 | more modest protection |  |
| B5 | strongly protective |  |
